# From patent US20030022827A1
# How the values were obtained:
# [1] = molecular target: IL-10R subtype I, which consists of an IL-10R1 and an IL-10R2 (human) (UniProt Q13651); test: cell-based or functional assay
# IL-10R1 (human) = IL-10R1 (human) (UniProt Q13651); test: cell-based or functional assay
# IL-10R1 (human), sequence (Q13651 22-578): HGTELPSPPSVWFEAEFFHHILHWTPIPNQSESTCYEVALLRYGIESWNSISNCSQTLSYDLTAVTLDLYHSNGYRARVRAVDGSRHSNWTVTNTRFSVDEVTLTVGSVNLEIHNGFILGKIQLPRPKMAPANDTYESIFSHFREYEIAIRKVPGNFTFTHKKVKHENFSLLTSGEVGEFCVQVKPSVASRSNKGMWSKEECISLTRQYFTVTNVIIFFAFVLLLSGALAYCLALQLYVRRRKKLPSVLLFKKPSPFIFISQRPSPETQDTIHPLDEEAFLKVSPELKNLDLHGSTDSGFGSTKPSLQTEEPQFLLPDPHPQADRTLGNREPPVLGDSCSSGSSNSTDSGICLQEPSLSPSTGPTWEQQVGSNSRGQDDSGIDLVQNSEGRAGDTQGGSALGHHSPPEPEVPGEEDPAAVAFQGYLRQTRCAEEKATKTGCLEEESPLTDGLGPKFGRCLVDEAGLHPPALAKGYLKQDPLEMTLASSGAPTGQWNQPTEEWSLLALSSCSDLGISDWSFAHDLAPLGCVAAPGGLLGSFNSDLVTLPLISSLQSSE
# IL-10R subtype I, which consists of an IL-10R1 and an IL-10R2 (human), sequence (Q13651 22-578, chain 1 of 2): as the sequence (Q13651 22-578) above
# IL-10R subtype I, which consists of an IL-10R1 and an IL-10R2 (human), sequence (Q08334 20-325, chain 2 of 2, further chain): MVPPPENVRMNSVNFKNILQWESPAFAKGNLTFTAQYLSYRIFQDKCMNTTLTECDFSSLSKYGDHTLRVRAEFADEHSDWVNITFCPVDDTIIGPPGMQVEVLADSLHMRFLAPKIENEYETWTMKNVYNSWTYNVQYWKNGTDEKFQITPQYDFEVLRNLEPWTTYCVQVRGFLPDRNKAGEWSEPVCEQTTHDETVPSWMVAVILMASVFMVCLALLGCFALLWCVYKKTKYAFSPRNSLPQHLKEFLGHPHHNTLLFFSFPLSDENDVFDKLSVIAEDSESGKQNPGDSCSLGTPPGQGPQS
substance,measurement,setting,value
Epstein-Barr virus-coded protein BCRF1 (from UniProt P03180 24-170) (ligand),expression of the low-affine IgG receptor CD16 on monocytes (flow cytometry),[1],30 to 100 ng/mL
same,inhibition of LPS-induced TNF-α release of PBMC (ELISA of supernatant),IL-10R1 (human),3 ng/mL
